Results taken from patent US20170165373A1.

Molecular target: human BCMA (huBCMA), full length, on cells (human) (UniProt Q02223)
Assay: FACS, H929 cells, negative control

Chain of human BCMA (huBCMA), full length, on cells (human) (Q02223 whole entry N81S): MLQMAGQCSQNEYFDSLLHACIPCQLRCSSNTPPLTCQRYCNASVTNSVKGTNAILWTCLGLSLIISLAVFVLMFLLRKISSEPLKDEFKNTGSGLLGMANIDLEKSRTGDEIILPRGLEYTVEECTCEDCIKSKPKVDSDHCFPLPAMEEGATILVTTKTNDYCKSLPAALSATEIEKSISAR

Substance: hu IgG1 (antibody)
- MFI: 8
